B1: Ovalbumin, P01012 (parent)
chain: MGSIGAASMEFCFDVFKELKVHHANENIFYCPIAIMSALAMVYLGAKDSTRTQINKVVRFDKLPGFGDSIEAQCGTSVNVHSSLRDILNQITKPNDVYSFSLASRLYAEERYPILPEYLQCVKELYRGGLEPINFQTAADQARELINSWVESQTNGIIRNVLQPSSVDSQTAMVLVNAIVFKGLWEKAFKDEDTQAMPFRVTEQESKPVQMMYQIGLFRVASMASEKMKILELPFASGTMSMLVLLPDEVSGLEQLESIINFEKLTEWTSSNVMEERKIKVYLPRMKMEEKYNLTSVLMAMGITDVFSSSANLSGISSAESLKISQAVHAAHAEINEAGREVVGSAEAGVDAASVSEEFRADHPFLFCIKHIATNAVLFFGRCVSP

Variants of: B1
Conditions: Gallus gallus, Thermal, CD, structure 1UHG, whole UniProt chain shown

Row | Variant | Tm (pH 7, Phosphate 10 mM) | change of melting temperature, mutant - wild type (higher = more stable) (pH 7, Phosphate 10 mM) | Tm (pH 10, Glycine-NaOH 0.1 M) | change of melting temperature, mutant - wild type (higher = more stable) (pH 10, Glycine-NaOH 0.1 M)
1 | S165A S321A | 71.3 °C | 1.5 °C | 71.8 °C | -7.1 °C
2 | S165A | 70.8 °C | 1 °C | 75.6 °C | -3.3 °C
3 | S321A | 69.3 °C | -0.5 °C |  | 
4 | S237A | 70.4 °C | 0.6 °C | 79.3 °C | 0.4 °C
5 | R143A S321A | 70 °C | 0.2 °C | 71.2 °C | -7.7 °C
6 | R143A | 69.8 °C | 0 °C | 75.6 °C | -3.3 °C

Source: FireProtDB (doi:10.1002/pro.398)
